Source: the nanobody polyreactivity screen of Harvey et al. (2022)

Assay: yeast display, Sf9 membrane polyspecificity reagent, FACS + sequencing; frameworks hold sequencing errors
Method in brief: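 In a synthetic yeast display library (Saccharomyces cerevisiae BJ5465), nanobody expression was induced with galactose for 36–48 hours. FACS gates were set low and high (top ~1%) using anti-HA fluorescence for expression and streptavidin fluorescence for binding of the Sf9 membrane reagent. Each polyreactivity label is drawn from the gate of origin.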

Row | Sequence | polyreactivity (PSR sort gate)
1 | QVQLLQTGGGLVQAGGSLRLSCAASGRIFVVNAMGWNRLAPGKEREMVADISSGVSTNYADSVKGRFTISRDNAKNTVYLQMNILKPEDTALYYCNSRFRFRYKFPSRNSWGQGTLVTVSS | high polyreactivity
2 | QVQLLVTGGGLVQAGGTLRISCAASGSIFYSYAMGWYRQSPGKERELVAAITGGGSTNYADSVKGRFTISLDNAKNTVYLQMNSLKPEDTAVYYCATDLYPIGAVIRYDYWGQGTQVTVSS | low polyreactivity
3 | QVQLQDSGGGLEQAGGSLRMSCAANGNIFDADIVGRYRQAQGKKRELVASITDGGITNYADSVKGRFTISRDNAKYTVYLQMNSQNPEDTAVYYCAAIAYPDIPTYFDYDSDFFYWGQGTQVTVSS | high polyreactivity
4 | QVQLQDSGGGLVQAGGSLRLSCAASGTIFWYSDLGWYRQAPGKERKFVAGIGFGSNSNFADSVRGRFTISRDNAKNTVYLQMNSLKPEDTAVYYCAAVWFDYSTHRYWGQGTQVTVSS | high polyreactivity
5 | QVQLQDSGGRLVQAGGSLRLSCAASGYIFGSCSMGWFRQSPGKVRELVATINNGSSTYYADSVKGRITISRDNAKNSVYLQMNSLKPEDTAVYYCAVSLYRLTFFYYWGQGNQVTVSS | high polyreactivity
6 | QVQLQECGGGLVQAGGRLRLSCAASGNIFDADIMGWYRQAPGKERELVASVTDGGSTNYADSVKGRFTISRDNAKNTVYLQMISLTPEDTAVYYCAAIVYPDILTYFDYDYDYFYWGQGTQVTVGS | low polyreactivity
7 | QVQLQECGGGLVQEGGSLRLSCAASGTYSNSVKWLYCQAPGKEREFVATIGVGGSTNYADSVKGRFTISRDIAKNSVYLQMNSLKPDDTAVYHCSAYGAASNFHYYRGQGTQVTVSS | low polyreactivity
8 | QVQLQEGGGLVQAGGSLRLSCAASGYISSPPAMGWYRQAPGKERAFVATIADGTSTYYADSVKGRFTISRDNAKNTVYLQMNSLKTEDTEVYYCAAAYNTEFYLSYWGQGTQVTVIS | high polyreactivity
9 | QVQLQEGGGLVQAGGSLRLSCAASGYISSRPAMGWYRQAPRKERAFVATIADGTSTYYADSVKGRFTISRDNAKNTVYLQMNSLKPEDTAVYYCAAAYNTEFYLSYWGQGTQVTVSS | high polyreactivity
10 | QVQLQEGRGLVQAGGSLRLSSAASGYISSRPAMGWYRQAPCKERSFVATIADGTSTYYADSVKGRFTISRDNAINTVYLQMNSLKPEDTAVYYCAAAYNTEFYLSYWGQGTQVTVSC | high polyreactivity
11 | QVQLQERGDGLLQAVGSLRLSFAESGYISGYYYMGWYRQAPGKDRELVAGIDAFGSSTNYADCVKGRFTISRDNAKNTVYLEMNSLKPEDTAVYYCAASPDGERLFSYWGQGTQVTVSS | low polyreactivity
12 | QVQLQERGGGLVQAGGSLCLSCAASGTIFFDGDMGWYRQAPGKEREFVAAINPGGSAYYADSVKGRLPLAAITHTVYLQMNSLKPEDTAVYYCAAKLFDVYGYYYWGQGTHVTVSS | low polyreactivity
13 | QVQLQERGGGLVQAGGSLCLTCEASGTIFYDGDMGLYRQAPGKEREFVAAINPGGSAYYADSVKGRLPLAAITHTVYLQMFSLKPEDTAVYYCAAEQITGWSRVWVSWYDYWGQGTQVTVSS | low polyreactivity
14 | QVQLQERGGGLVQAGGSLRLSCAASGIIYADGFMGLYRQAPGKELEFVANITGGGTSNYADSVKGGFTISRDNAKNTVYLQMNSLKPEDTAVYFCAVYFAWTIGFTYWGQGTQVTVSS | high polyreactivity
15 | QVQLQERGGGLVQVGGSQRLSCAASGNIFYNYAMGWYRHAQGKEREFDATINHGTSINYADSVKGRFTISRDNAKNSVYLQMNSLKPEDTAVYYCAADLSWTDNLFYWGQGTQVTVSS | low polyreactivity
16 | QVQLQERGGGLVQVRGSLRLSCAASGTIIIYGFMGWNRQAPGKERELVASINLGGITNYADSVTGRFTISRDNAKNTVYRQMISLKPEDNAVYYCAAYVVTGQNYGYWCQGTQVTVSS | low polyreactivity

Row | Sequence | polyreactivity (PSR sort gate)
17 | QVQLQERGGGQVQAGGSLRLSCAASGTIFLYAFMGWYRQAPGKERELVAAIDVGTTTNYADSVKGRFTISRDNAKNTVYLQMNSLKPEDTAVYYCAANLGYLDDLGYWGQGTQVTVSS | low polyreactivity
18 | QVQLQESAGGLVKAGGSLRLSCAASGNISNHNDMRWYRQAPGKEREFVAGITAGGNTNYADSVKGRFTISRDNAKNTVYLQMNSLKPEDTAVYYCAAYPDYAKSYGYWGQGTQATVSS | low polyreactivity
19 | QVQLQESAGGLVQAGGSLRLRCSASGYISCDASMGWYRQAPGKERELAASITQGSSTNYADSVKGRFTIRDNAKNTVYLQMNSLKPEDTAVCYCAVTYPYWGDYTYWGQGTQVTVSS | low polyreactivity
20 | QVQLQESAGGLVQAGGSLRLSCAASGTISTDSYMGWYRQAPGKERKFVATIGYGGITYYADSVKGRSTISRDSAKNTVYLQMNSLKPEDTAVYYCAVNSYYPDHYWYWGRGTQVTVSS | high polyreactivity
21 | QVQLQESAGGLVQAGGSLRMSCAASGTIFSEANMGWYRQAPGKERELVATIGQGSTTNYADSVKGRFTISRDNAKNTVYLQMNSLKPEETAVYYCAVVTVDPVGFVYWGQGTQVTVSS | low polyreactivity
22 | QVQLQESCGGLVQAGGSLRLSCAASGSIFDGFNMGWYRQAPGKEREFVAAISYGASTYYADSVKGRFTVSRDNAKNSVYLQMNSLKPEDTAVYYCAVYDELYHVLVYWGRGTQVTVSS | low polyreactivity
23 | QVQLQESGAGLVQAGGRLRLSCASSGTITVLYKMGWFRQAPGKEREFVASINYGTSTYYADSVKGRFTVSRDSATNHEYLQMISLKPEDTAVYYCAAAYRWQDVYRYWGQGSQVTVSS | low polyreactivity
24 | QVQLQESGAGLVQAGGSLRLCCAASGSIFYVYGMGWYRQAPGKERELVAGINAGTNTNYADSVRGRFTISRDNAKNTVHLQMNSLKPEDTAVYYCAADGNGYQAHEYWGQGTQVTVSS | high polyreactivity
25 | QVQLQESGDGLVQAVGSLRLSCAASGYISGYNYMGWYRQAPGKERELVAGIDAFGSSTNYADCVKGRFTISRDNAKNTVYLQMNSPKPEDTAVYYCAAEYDDWDYLWYWGQGTQVTVSS | low polyreactivity
26 | QVQLQESGDGLVQAVGSLRLSCAASGYISGYYYMGWYRQAPGKERELVAGIEAFGSSTNYADCVKGRFTISRDNAKNTVYLQMNSPKPEDTAVYYCAAEYDDWDYHWYWGQGTQVTVSS | low polyreactivity
27 | QVQLQESGGCLVQAGGSLRLSCAASGPISRRSTMGWYSQAPGKERELVTAITRGTNTNYADSVKGRFTISRDNAKNTEYLQMNSLKTEDTAVYYCAAYGVLKPSRGDAVFHRYWGQGTQVTVSS | low polyreactivity
28 | QVQLQESGGCLVQAGGSLRLSCAASGTNSDSGLMGWYRQAPGKERELVAGISSGGITTYADSVKGRFTISRDNAKNTVYLQMNSLKPEDTAVYWGQGTQVTVSC | low polyreactivity
29 | QVQLQESGGGLEQAGGSLRLSCAATGTIFTDRFMGWYRQAPGKERELVAGISPGTSSNSADSVKGRFTISRDNAKNTVYLQMNSLKPEDTAVYYCAADWSTGNTLPYWGQGTQVTVSS | high polyreactivity
30 | QVQLQESGGGLEQEGGSLRLSCAASGNISPPADMGWYRQAAGKERELVASIGTGGTTNYADSVKGRFNISRDNAKNTVYLQMNSLKPDDTSVYYCAAVRYEYNPYDYLGQGTQVTVSS | low polyreactivity
31 | QVQLQESGGGLGQAGRSLRHSFAASGNIFDAGIMGWYRQAPGEERELVACITDGGSTNYADSVKRRFTISRDNAKNTVYLQMNSQKPEDTAVYYCAASWDTIGLFAYWGQGTQVTVSS | high polyreactivity
32 | QVQLQESGGGLMQAGGNLRLSCAASGYISTHYDMDWYRQAPGKERELVARIDDGAITNYADSVKGRFTISRDNAKNTVYLQMNSLKPEDTAVYYCAVSSGDDYYHDYWGQGTQVTVSS | low polyreactivity
